The target in assay [1] is T1, inactivated Dsg3 protein having a pro-sequence (mouse, UniProt O35902 24-617, limits assumed).
T1 construct: the sentence on immunoblotting itself says only 'Dsg3'; also called protein with large molecular weight; not shown: His tag
T1 sequence (looked up): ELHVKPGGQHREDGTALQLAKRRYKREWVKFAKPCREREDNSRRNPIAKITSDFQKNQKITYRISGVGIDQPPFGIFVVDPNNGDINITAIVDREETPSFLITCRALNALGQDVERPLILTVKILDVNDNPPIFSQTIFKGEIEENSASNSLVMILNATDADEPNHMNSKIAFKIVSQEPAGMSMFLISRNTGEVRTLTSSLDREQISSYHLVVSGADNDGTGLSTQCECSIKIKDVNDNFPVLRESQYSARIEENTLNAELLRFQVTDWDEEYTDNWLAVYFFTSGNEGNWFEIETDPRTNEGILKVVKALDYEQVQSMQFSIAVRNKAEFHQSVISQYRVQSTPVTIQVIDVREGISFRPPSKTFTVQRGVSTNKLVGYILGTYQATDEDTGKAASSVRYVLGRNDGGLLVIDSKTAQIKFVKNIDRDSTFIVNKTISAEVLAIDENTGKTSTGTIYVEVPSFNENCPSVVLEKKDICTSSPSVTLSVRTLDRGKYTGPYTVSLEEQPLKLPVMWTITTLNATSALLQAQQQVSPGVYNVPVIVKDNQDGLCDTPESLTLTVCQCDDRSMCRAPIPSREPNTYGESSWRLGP
Kind of assay: immunoprecipitation and immunoblotting of recombinant Dsg3 (FIG. 7b). As for the experimental part: Then 10 μl of protein G (Protein G sepharose 4 fast flow: Amersham Pharmacia Biotech, Buckinghamshire, England) was added and reacted overnight at […]. Centrifugation was conducted after the reaction, and 50 μl of SDS was added to the precipitate and boiled for 2 minutes. Each sample was subjected to electrophoresis with a 7.5% uniform gel plate for electrophoresis (multigel 7.5: Daiichi Pure Chemicals, Tokyo, Japan), transcribed to PVDF membrane, then blocked. Further, 100-fold diluted anti-6X histidine antibody (R&D systems, Inc. Minn., USA) was reacted for 1 hour at room temperature, washed (3 times) in TBS (Tris buffered saline), then 1000-fold diluted alkaline phosphatase-goat anti-mouse IgG (Zymed, San Francisco, Calif., USA) was reacted for 1 hour at room temperature, washed (3 times) in TBS, then developed.
To characterize the epitopes of monoclonal antibodes such as AK23 and the like, it was first determined whether the binding to Dsg3 of the antibodies is calcium-dependent or not. Recombinant mouse Dsg3-His was treated with or without EDTA, and then subjected to immunoprecipitation with the AK antibodies. EDTA treatment abolished the reactivity of AK19 and AK23 antibodies, but not the reactivity of the other AK antibodies (Table 3, FIG. 7a). […]
A general note: A western blot detects proteins with antibodies after separation by electrophoresis.

Assay [2] has as its target T2, Dsg3-M1 (human, UniProt P32926 50-615, T25H; Y28C; Q29A).
T2 construct: extracellular domain; Dsg3-specific residues changed to the Dsg1-specific ones; also called point-mutated human Dsg3 molecule M1; not shown: His tag of vector pEVmod-His
T2 sequence (looked up): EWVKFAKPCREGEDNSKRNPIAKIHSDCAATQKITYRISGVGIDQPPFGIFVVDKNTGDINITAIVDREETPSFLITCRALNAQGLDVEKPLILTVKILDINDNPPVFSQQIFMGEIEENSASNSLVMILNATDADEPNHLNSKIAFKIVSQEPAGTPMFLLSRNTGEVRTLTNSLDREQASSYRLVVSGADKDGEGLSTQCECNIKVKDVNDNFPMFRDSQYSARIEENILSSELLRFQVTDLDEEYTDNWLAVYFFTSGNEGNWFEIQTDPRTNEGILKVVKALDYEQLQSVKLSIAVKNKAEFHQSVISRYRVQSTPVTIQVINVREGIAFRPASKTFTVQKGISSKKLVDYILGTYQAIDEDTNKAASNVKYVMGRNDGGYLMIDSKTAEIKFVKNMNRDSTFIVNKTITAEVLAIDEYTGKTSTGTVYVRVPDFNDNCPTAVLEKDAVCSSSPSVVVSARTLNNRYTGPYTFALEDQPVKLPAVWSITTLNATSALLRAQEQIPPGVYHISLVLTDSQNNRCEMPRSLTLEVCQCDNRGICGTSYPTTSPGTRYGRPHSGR
Kind of assay: immunoprecipitation of point-mutated molecules (FIG. 5).

In assay [3] the target is T3, Dsg3-M6 (human, UniProt P32926 50-615, A83S; Q84M).
T3 construct: extracellular domain; also called point-mutated human Dsg3 molecule M6; not shown: His tag of vector pEVmod-His
T3 sequence (looked up): T2 sequence (looked up) with H25T, C28Y, A29Q, A83S, Q84M
Described as above.

Residue numbers refer to the chain shown, from its start.

B1: anti-Dsg3 monoclonal antibody AK23 (antibody, mouse IgG1, V domains shown)
VH: QVQLQQSGTELVKPGASVKLSCKSSGYTFTSYWINWVKQRPGQGLEWIGNINPSNGGINYNEKFKSKATLTVDKSSSTAYMQLKSLTSEDSAVYYCARGGYDGYPWGQGTTVTVS
VL: DIQMTQSPKFLLVSAGDRVTITCKASQSVSYDVAWYQQKPGQSPKLLISYASNRYTGVPDRFTGSGYGSDFTFTISTVQTEDLAVYFCQQDYSSPWTFGGGTKLELKR
notes: Mouse IgG1 kappa hybridoma antibody
As to B1, the results for the binding result in assay [1], in assay [2] and in assay [3] were “no binding”, “binds” and “binds”, respectively.

Values taken from patent US20050025760A1 (KEIO UNIVERSITY, published 2005).
